Laboratory results: publication PMC4151996

Biological target: AcHNL, hydroxynitrile lyase from Acidobacterium capsulatum ATCC 51196 (Acidobacterium capsulatum ATCC 51196)
Assay: SEC

Substance “AcHNL, hydroxynitrile lyase from Acidobacterium capsulatum ATCC 51196 (enzyme)” has a stoichiometry N of 4.
